Laboratory results as given in paper PMC6716676, “Chemokine signaling links cell-cycle progression and cilia formation for left–right symmetry breaking” (PLoS Biology, 2019).
Substitutions are numbered along the chain they refer to. In names and notes the source's numbering stands. Each block holds one molecule with its values, some of them ahead of it.

Tests used:
[1] = target: zFoxj1a (zebrafish Foxj1a) (UniProt F1QDF8); assay: co-IP of Flag- and HA-tagged zFoxj1a; details: reference: wild type (both tagged copies); sites T102
[2] = target: the molecule itself; assay: native gel or EMSA; whole-cell lysates of HEK293T cells with overexpressed Flag-tagged zFoxj1a or its mutants separated on SDS- and native PAGEs

binding against the reference [1]: weaker
Molecule: zFoxj1a (zebrafish Foxj1a) (from UniProt F1QDF8) T102A (both tagged copies)

B1: Flag-zFoxj1a (zebrafish forkhead box j1a) (natural protein, UniProt F1QDF8 1-458, looked up)
chain: MLSMSSMDPWPEGSVGLEEEVVTAAAQAERLDTSTPLQCNTSLDSDNLDDSLTSLQWLQEFSILNASTGQHTSPSSHSHLMGSDAPSSPLAGDPASIGMPLTPGKPTAASFCRVPMFSALPSLVAHGHCPDEVDYKSNPHIKPPYSYATLICMAMQASKKTKITLSCIYKWITDNFCYFRHADPTWQNSIRHNLSLNKCFIKVPRQKDEPGKGGFWKIDPQYAERLLNGAYKKRRLPPVQINPALQHRLRMNAQATGVISRNLSVSPESQQLLKDFEEATSADQNWDPRLAEATMLSCWISGKGTNKRKQPYNHRTGKTPRRSSSPLLVMDEQEDLSSLRGNFDWDALLDSALNGELSLNEGSPLSPTPQDEELMIRGTHISPQEAPVENHVLMETQRSGDEDFDEETFLATAFLQSPWSEVDESNRSDFLGSSTVSIDQLFDLSFGGDLSSKIETLL
notes: forkhead box j1a (Foxj1a), zebrafish; In the self-association co-IP the second copy carried an HA tag instead of Flag (HA-zFoxj1a); also called Flag-tagged zFoxj1a; wild-type zFoxj1a; source: HEK293T, transfected, in lysate
stoichiometry N [2]: 2

B2: Flag-zFoxj1a-T102D (natural protein, zebrafish, UniProt F1QDF8 1-458, looked up)
chain: B1 chain with T102D
notes: forkhead box j1a (Foxj1a), zebrafish; In the self-association co-IP the second copy was differently tagged (HA); also called phospho-mimicking mutant of zFoxj1a; T102D mutant; source: HEK293T, transfected, in lysate
stoichiometry N [2]: 2
